Earlier results in PMC12590814.
Like-named read-outs stand apart in the source and are kept apart here.

Key:
[1] = biological target: calmodulin (Homo sapiens) (UniProt P0DP23)
[2] = biological target: calmodulin (Homo sapiens) (UniProt P0DP23); remark: listed apart in the source

Kd [1] | Kd [2] | Substance
7.5 nM | – | PMCA3 (from UniProt Q16720)
– | 7.5 nM | PMCA2 (from UniProt Q01814)
